Patent US20210380703A1 (RIGEL PHARMACEUTICALS, published 2021)

These binders were tested against ACVR2A on primary human myotubes (human, UniProt P27037 20-513) (assay: cell-based or functional assay).
Target sequence in this assay (P27037 20-513): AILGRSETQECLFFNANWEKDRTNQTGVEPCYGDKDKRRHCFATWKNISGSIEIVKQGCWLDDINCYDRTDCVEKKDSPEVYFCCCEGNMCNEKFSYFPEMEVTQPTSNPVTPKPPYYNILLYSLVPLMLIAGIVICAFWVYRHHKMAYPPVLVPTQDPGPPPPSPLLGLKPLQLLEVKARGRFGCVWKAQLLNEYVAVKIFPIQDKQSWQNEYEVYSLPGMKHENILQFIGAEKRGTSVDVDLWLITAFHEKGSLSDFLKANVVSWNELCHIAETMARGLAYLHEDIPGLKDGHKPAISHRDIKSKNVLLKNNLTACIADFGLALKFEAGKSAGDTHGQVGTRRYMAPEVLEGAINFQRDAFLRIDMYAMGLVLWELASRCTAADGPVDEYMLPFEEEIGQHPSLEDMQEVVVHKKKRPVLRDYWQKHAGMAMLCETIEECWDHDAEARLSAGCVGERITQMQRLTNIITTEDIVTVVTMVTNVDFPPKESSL

Binder | Phospho-SMAD3 Human Skeletal Muscle GDF8
374_E05 (antibody, V domains shown) VH: EVQLLESGGGLVQPGGSLRLSCAASGFTFSSYSMNWVRQAPGKGLEWVAGINYNGGYTSYADSVKGRFTISRDNSKNTLYLQMNSLRAEDTAVYYCARSANWHDTALDYWGQGTLVTVSS VL: DIQMTQSPSSLSASVGDRVTITCRASQSILSFVNWYQQKPGKAPKLVIYAATSRASGVPSRFSGSGSGTDFTLTISSLQPEDFATYYCQQSYNLPLTFGGGTKVEIK | 0.0497
376_C06 (antibody, V domains shown) VH: EVQLLESGGGLVQPGGSLRLSCAASGFTFSSYGMNWVRQAPGKGLEWVAGINYNGGYTSYADSVKGRFTISRDNSKNTLYLQMNSLRAEDTAVYYCARSATWHDTALDYWGQGTLVTVSS VL: DIQMTQSPSSLSASVGDRVTITCRASQSILSYLNWYQQKPGKAPKLVIYAATSRASGVPSRFSGSGSGTDFTLTISSLQPEDFATYYCQQSYDSPLTFGGGTKVEIK | 0.0107
372_F09 (antibody, V domains shown) VH: EVQLLESGGGLVQPGGSLRLSCAASGFTFDSYSMNWVRQAPGKGLEWVANINYNSGYKGYADSVKGRFTISRDNSKNTLYLQMNSLRAEDTAVYYCARSANWHDTALDYWGQGTLVTVSS VL: DIQMTQSPSSLSASVGDRVTITCRASQSILTYLNWYQQKPGKAPKLVIYAATSLASGVPSRFSGSGSGTDFTLTISSLQPEDFATYYCQQSYSSPLTFGGGTKVEIK | 0.018
370_H01 (antibody, V domains shown) VH: EVQLLESGGGLVQPGGSLRLSCAASGFTFSSYSMNWVRQAPGKGLEWVSGINYNSGYKGYADSVKGRFTISRDNSKNTLYLQMNSLRAEDTAVYYCARSANWHDTALDYWGQGTLVTVSS VL: DIQMTQSPSSLSASVGDRVTITCRASQSIISYLNWYQQKPGKAPKLLIYAVTSRASGVPSRFSGSGSGTDFTLTISSLQPEDFATYYCQQSYDTPLTFGGGTKVEIK | 0.0093
374_C08 (antibody, V domains shown) VH: EVQLLESGGGLVQPGGSLRLSCAASGFTFDSYGMNWVRQAPGKGLEWVSGINYNSGYKSYADSVKGRFTISRDNSKNTLYLQMNSLRAEDTAVYYCARSATWHDTALDYWGQGTLVTVSS VL: DIQMTQSPSSLSASVGDRVTITCRASQSILSYVNWYQQKPGKAPKLLIYAVTSRASGVPSRFSGSGSGTDFTLTISSLQPEDFATYYCQQSYDSPLTFGGGTKVEIK | 0.585

Continued, values first:

Phospho-SMAD3 Human Skeletal Muscle GDF8 | Binder
0.0193 | 372_A04 (antibody, V domains shown) VH: EVQLLESGGGLVQPGGSLRLSCAASGFTFDSYSMNWVRQAPGKGLEWVSGINYNSGYTSYADSVKGRFTISRDNSKNTLYLQMNSLRAEDTAVYYCARSANWHDTALDYWGQGTLVTVSS VL: DIQMTQSPSSLSASVGDRVTITCRASQSILTYLNWYQQKPGKAPKLVIYAATSRASGVPSRFSGSGSGTDFTLTISSLQPEDFATYYCQQSYETPLTFGGGTKVEIK
0.0082 | 370_C05 (antibody, V domains shown) VH: EVQLLESGGGLVQPGGSLRLSCAASGFTFSSYSMNWVRQAPGKGLEWVAGINYNSGYTGYADSVKGRFTISRDNSKNTLYLQMNSLRAEDTAVYYCARSANWHDTALDYWGQGTLVTVSS VL: DIQMTQSPSSLSASVGDRVTITCRASQSILSYVNWYQQKPGKAPKLVIYAATSRASGVPSRFSGSGSGTDFTLTISSLQPEDFATYYCQQSYNSPLTFGGGTKVEIK
0.0093 | 373_B04 (antibody, V domains shown) VH: EVQLLESGGGLVQPGGSLRLSCAASGFTFSSYGMNWVRQAPGKGLEWVAGINYNSGYKGYADSVKGRFTISRDNSKNTLYLQMNSLRAEDTAVYYCARSANWHDTALDYWGQGTLVTVSS VL: DIQMTQSPSSLSASVGDRVTITCRASQSILTYLNWYQQKPGKAPKLLIYAATSRASGVPSRFSGSGSGTDFTLTISSLQPEDFATYYCQQSYETPLTFGGGTKVEIK
0.0093 | 374_B04 (antibody, V domains shown) VH: EVQLLESGGGLVQPGGSLRLSCAASGFTFSSYSMNWVRQAPGKGLEWVSNINYNSGYTGYADSVKGRFTISRDNSKNTLYLQMNSLRAEDTAVYYCARSANWHDTALDYWGQGTLVTVSS VL: DIQMTQSPSSLSASVGDRVTITCRASQSIVSYLNWYQQKPGKAPKLLIYAVTSRASGVPSRFSGSGSGTDFTLTISSLQPEDFATYYCQQSYESPLTFGGGTKVEIK
0.0646 | 372_F03 (antibody, V domains shown) VH: EVQLLESGGGLVQPGGSLRLSCAASGFTFSSYGMNWVRQAPGKGLEWVAGINYNGGYTSYADSVKGRFTISRDNSKNTLYLQMNSLRAEDTAVYYCARSANWHDTALDYWGQGTLVTVSS VL: DIQMTQSPSSLSASVGDRVTITCRASQSILSYLNWYQQKPGKAPKLVIYAATSRASGVPSRFSGSGSGTDFTLTISSLQPEDFATYYCQQSYDTPLTFGGGTKVEIK
0.0402 | 371_B07 (antibody, V domains shown) VH: EVQLLESGGGLVQPGGSLRLSCAASGFTFDSYSMNWVRQAPGKGLEWVAGINYNGGYTSYADSVKGRFTISRDNSKNTLYLQMNSLRAEDTAVYYCARSANWHDTALDYWGQGTLVTVSS VL: DIQMTQSPSSLSASVGDRVTITCRASQSILTYVNWYQQKPGKAPKLLIYAATSRASGVPSRFSGSGSGTDFTLTISSLQPEDFATYYCQQSYELPLTFGGGTKVEIK

Biological target: ACVR2A on primary human myotubes (human, UniProt P27037 20-513)
Assay: cell-based or functional assay
Remark: another data set of the same source
Target sequence in this assay (P27037 20-513): as the sequence (P27037 20-513) above

Binder | Phospho-SMAD3 Human Skeletal Muscle GDF8
373_F08 (antibody, V domains shown) VH: EVQLLESGGGLVQPGGSLRLSCAASGFTFSSYSMNWVRQAPGKGLEWVSGINYNGGYTSYADSVKGRFTISRDNSKNTLYLQMNSLRAEDTAVYYCARGANWHDTALDYWGQGTLVTVSS VL: DIQMTQSPSSLSASVGDRVTITCRASQSILTYLNWYQQKPGKAPKLLIYAATSRASGVPSRFSGSGSGTDFTLTISSLQPEDFATYYCQQSYDTPLTFGGGTKVEIK | 0.005
369_H08 (antibody, V domains shown) VH: EVQLLESGGGLVQPGGSLRLSCAASGFTFSSYSMNWVRQAPGKGLEWVAGINYNSGYKSYADSVKGRFTISRDNSKNTLYLQMNSLRAEDTAVYYCARGATWHDTHLDYWGQGTLVTVSS VL: DIQMTQSPSSLSASVGDRVTITCRASQSILSYVNWYQQKPGKAPKLVIYAATSLASGVPSRFSGSGSGTDFTLTISSLQPEDFATYYCQQSYESPLTFGGGTKVEIK | 0.0308
367_A02 (antibody, V domains shown) VH: EVQLLESGGGLVQPGGSLRLSCAASGFTFDSYGMNWVRQAPGKGLEWVSSINYNSGYKGYADSVKGRFTISRDNSKNTLYLQMNSLRAEDTAVYYCARGATWHDTHLDYWGQGTLVTVSS VL: DIQMTQSPSSLSASVGDRVTITCRASQSIISYLNWYQQKPGKAPKLLIYAVTSRASGVPSRFSGSGSGTDFTLTISSLQPEDFATYYCQQSYDTPLTFGGGTKVEIK | 0.159
369_C12 (antibody, V domains shown) VH: EVQLLESGGGLVQPGGSLRLSCAASGFTFSSYGMNWVRQAPGKGLEWVANINYNGGYKGYADSVKGRFTISRDNSKNTLYLQMNSLRAEDTAVYYCARGATWHDTHLDYWGQGTLVTVSS VL: DIQMTQSPSSLSASVGDRVTITCRASQSILTYLNWYQQKPGKAPKLLIYAATSRHSGVPSRFSGSGSGTDFTLTISSLQPEDFATYYCQQSYDTPLTFGGGTKVEIK | 0.0094
370_C06 (antibody, V domains shown) VH: EVQLLESGGGLVQPGGSLRLSCAASGFTFSSYSMNWVRQAPGKGLEWVANINYNGGYKSYADSVKGRFTISRDNSKNTLYLQMNSLRAEDTAVYYCARGATWHDTHLDYWGQGTLVTVSS VL: DIQMTQSPSSLSASVGDRVTITCRASQSILTYVNWYQQKPGKAPKLLIYAASSLQSGVPSRFSGSGSGTDFTLTISSLQPEDFATYYCQQSYSTPLTFGGGTKVEIK | 0.0111
370_C07 (antibody, V domains shown) VH: EVQLLESGGGLVQPGGSLRLSCAASGFTFSSYSMNWVRQAPGKGLEWVANINYNGGYKSYADSVKGRFTISRDNSKNTLYLQMNSLRAEDTAVYYCARGATWHDTHLDYWGQGTLVTVSS VL: DIQMTQSPSSLSASVGDRVTITCRASQSILSYLNWYQQKPGKAPKLLIYAATSRHSGVPSRFSGSGSGTDFTLTISSLQPEDFATYYCQQSYESPLTFGGGTKVEIK | 0.0044

Now from value to binder:

Phospho-SMAD3 Human Skeletal Muscle GDF8 | Binder
0.299 | 368_G03 (antibody, V domains shown) VH: EVQLLESGGGLVQPGGSLRLSCAASGFTFSSYSMNWVRQAPGKGLEWVSGINYNSGYTSYADSVKGRFTISRDNSKNTLYLQMNSLRAEDTAVYYCARGATWHDTALDYWGQGTLVTVSS VL: DIQMTQSPSSLSASVGDRVTITCRASQSILSYLNWYQQKPGKAPKLVIYAATSRASGVPSRFSGSGSGTDFTLTISSLQPEDFATYYCQQSYDTPLTFGGGTKVEIK
0.0303 | 369_H12 (antibody, V domains shown) VH: EVQLLESGGGLVQPGGSLRLSCAASGFTFSSYSMNWVRQAPGKGLEWVAGINYNGGYKSYADSVKGRFTISRDNSKNTLYLQMNSLRAEDTAVYYCARGATWHDTHLDYWGQGTLVTVSS VL: DIQMTQSPSSLSASVGDRVTITCRASQSIVTYVNWYQQKPGKAPKLVIYAATSRASGVPSRFSGSGSGTDFTLTISSLQPEDFATYYCQQSYDSPLTFGGGTKVEIK
0.0325 | 369_F09 (antibody, V domains shown) VH: EVQLLESGGGLVQPGGSLRLSCAASGFTFSSYGMHWVRQAPGKGLEWVAGINYNGGYTSYADSVKGRFTISRDNSKNTLYLQMNSLRAEDTAVYYCARGATWHDTHLDYWGQGTLVTVSS VL: DIQMTQSPSSLSASVGDRVTITCRASQSILTYVNWYQQKPGKAPKLLIYAATSRASGVPSRFSGSGSGTDFTLTISSLQPEDFATYYCQQSYDSPLTFGGGTKVEIK
0.0165 | 370_D03 (antibody, V domains shown) VH: EVQLLESGGGLVQPGGSLRLSCAASGFTFSSYSMNWVRQAPGKGLEWVASINYNGGYTSYADSVKGRFTISRDNSKNTLYLQMNSLRAEDTAVYYCARGATWHDTHLDYWGQGTLVTVSS VL: DIQMTQSPSSLSASVGDRVTITCRASQSIITYLNWYQQKPGKAPKLLIYAATSRASGVPSRFSGSGSGTDFTLTISSLQPEDFATYYCQQSYDLPLTFGGGTKVEIK
